Source: CN114907480A (JIANGSU XINTRUM PHARMACEUTICALS CO LTD, dated 2022)

T1: 重组人CD73蛋白 (自主表达的人源CD73蛋白, C端6×His标签) (human, UniProt P21589 27-549, limits assumed)
T1 sequence: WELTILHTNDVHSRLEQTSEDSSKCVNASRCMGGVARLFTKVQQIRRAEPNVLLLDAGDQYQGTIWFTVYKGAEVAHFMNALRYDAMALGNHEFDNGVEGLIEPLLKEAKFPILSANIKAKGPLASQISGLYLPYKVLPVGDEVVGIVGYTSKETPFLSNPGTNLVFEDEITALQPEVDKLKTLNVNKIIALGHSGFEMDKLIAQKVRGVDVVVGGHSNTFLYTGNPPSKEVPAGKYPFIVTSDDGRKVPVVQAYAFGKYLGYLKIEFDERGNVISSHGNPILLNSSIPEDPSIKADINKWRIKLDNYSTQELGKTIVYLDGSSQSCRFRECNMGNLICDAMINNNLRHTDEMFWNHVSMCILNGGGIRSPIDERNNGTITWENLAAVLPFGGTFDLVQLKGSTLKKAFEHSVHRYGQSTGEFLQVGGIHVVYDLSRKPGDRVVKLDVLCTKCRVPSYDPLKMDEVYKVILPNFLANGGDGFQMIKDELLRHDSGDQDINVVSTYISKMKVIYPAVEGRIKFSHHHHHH


Experiments:
[1] = target: T1, 重组人CD73蛋白 (自主表达的人源CD73蛋白, C端6×His标签); assay: SPR, Biacore T200, antibody captured on CM5 chip, human CD73 as analyte, 25℃, 1:1 model
[2] = target: T1, 重组人CD73蛋白 (自主表达的人源CD73蛋白, C端6×His标签); assay: SPR, Biacore T200, antibody captured by anti-mouse Fc IgG on CM5 chip, human CD73 as analyte, 25℃, 1:1 model

| Kd [1] | koff [1] | kon [1] | Kd [2] | koff [2] | kon [2] | Binder |
| --- | --- | --- | --- | --- | --- | --- |
| 0.141 nM | 3.91e-05 s⁻¹ | 278000 M⁻¹ s⁻¹ | – | – | – | MEDI-9447 (MedImmune公司的抗CD73单克隆抗体) (antibody, V domains shown) VH: EVQLLESGGGLVQPGGSLRLSCAASGFTFSSYAYSWVRQAPGKGLEWVSAISGSGGRTYYADSVKGRFTISRDNSKNTLYLQMNSLRAEDTAVYYCARLGYGRVDEWGRGTLVTVSS VL: QSVLTQPPSASGTPGQRVTISCSGSLSNIGRNPVNWYQQLPGTAPKLLIYLDNLRLSGVPDRFSGSKSGTSASLAISGLQSEDEADYYCATWDDSHPGWTFGGGTKLTVL |
| – | – | – | 0.416 nM | 3.21e-05 s⁻¹ | 77200 M⁻¹ s⁻¹ | 抗人CD73单克隆抗体7-C10-Ba-C2 (antibody, V domains shown, Mouse (BALB/c) hybridoma antibody, IgG type, purified from ascites; also called 本发明抗体7-C10-Ba-C2; 本发明的抗CD73单抗) VH: EVQLQQSGPELVKPGASMKISCKASGYSFTGYTMNWVKQSHGKNLEWIGFITPYNGDTIYNQKFKGKATVTVDKSSSTAYMDLLSLTSEDSAVYYCAREGYDGGYFDYWGQGTTLTVSS VL: DIQMTQSPASLSASVGETVTITCRASENIYSYLAWYQQKQGKSPQLLVYNTQTLAEGVPSRFSGSGSGTQFSLKINSLQPEDFGSYYCQHHYGTPMYPFGGGTKLEIK |
